Laboratory results as given in patent US12371675B2, “Process and microorganism for synthesis of adipic acid from carboxylic acids” (THE GOVERNING COUNCIL OF THE UNIVERSITY OF TORONTO, priority 2015, dated 2025).

Columns and labels:
[1] = AR reductase activity, NAD(P)H oxidation at 340 nm; format: biochemical; settings: 10 mM, ND = no activity was detected; for Activity [U/mg protein] Adipaldehyde: 1.8% DMSO
Experimental: Enzyme activity of purified ARs was measured spectrophotometrically in 96-well plates Reaction mixtures contained 100 mM HEPES buffer (pH 7.5), 0.4 mM NADH/NADPH, 10 mM adipaldehyde or butylaldehyde, and proteins (10 μg for adipaldehyde screen, 2 μg for butyraldehyde screen) in a final volume of 200 μL Reaction mixture for adipaldehyde screening contained 1.8% DMSO. Enzyme reactions were monitored by following the decrease in absorbance at 340 nm (ε340 nm=6,220/M·cm) due to oxidation of NAD(P)H to NAD(P)+.

[2] = AT activity coupled with alanine and glutamate dehydrogenases; format: biochemical; settings: 10 mM adipaldehyde, alanine and glutamate amino-donors; ND = no activity was detected

B1: Atu2528: aldehyde reductase (AR) from Agrobacterium fabrum (protein)
chain: MQPFVYMAAPARIVFSAGSSADVAEEIRRLGLSRALVLSTPQQKGDAEALASRLGRLAAGVFSEAAMHTPVEVTKTAVEAYRAAGADCVVSLGGGSTTGLGKAIALRTDAAQIVIPTTYAGSEVTPILGQTENGVKTTMRGPEILPEVVIYDAELTLGLPVAISMTSGLNAMAHAAEALYARDRNPIASMMAVEGLRAMIEALPVVRQAPHDIGARETALYGAWLCGTVLGAVGMSLHHKLCHTLGGSLDLPHAETHAVLLPHTIAYVEEAAPNLLAPLAALVGGRAGAGLFDFAARLGAPSSLAALGVGADDLDPMAELATANPYWCPRPIEKTAIRDLLQRAFEGARPA
Question: With B1 as the molecule, how does the “Activity [U/mg protein] Butyraldehyde” value [1] read?
Answer: 0.110 ± 0.089 U/mg protein

B2: PSPTO_2097: aldehyde reductase (AR) from Pseudomonas syringae (protein)
chain: MIEHLKLAGKVALVQGGSRGIGAAIVNRLAKEGAAVAFTYINSEVNALEIQDSINANGGRALAIRADSADEKAIRQAVQTTAETLGRLDILVNNAGVLAIAPLNEFSMQDFDKTLAINVRSVFIASQEAARHMEEGGRIINIGSTNAERMPFAGGATYAMSKSALIGLTKGMARDLGPQGITVNNVQPGPVDTDMNPAQGEFAESLKALMALPRYGKSEEIASFVAYLAGPEAGYITGASLTIDGGFSA
Question: Which results are given for B2?
Answer: Activity [U/mg protein] Adipaldehyde [1]: 1.046 ± 0.009 U/mg protein; Activity [U/mg protein] Butyraldehyde [1]: 0.59 ± 0.597 U/mg protein

B3: SM2011_c01534: aminotransferase (AT) from Sinorhizobium meliloti (protein)
chain: MSNRLNTTPNDLSAFWMPFTANRQFKKEPRLFVGAKDMYYTTHDGRTVLDGTAGLWCVNAGHCRPKITEAIREQAGELDYAPAFQLGHPKAFELANRLVDIAPEGMNHVLYTNSGSESVDTALKVALAYHRAKGNGSRFRLIGRERGYHGVNFGGISVGGIVANRKMFGTLLTGVDHLPHTHLPAKNAFSRGEPEHGADLAAELERIVTLHDASTVAAVIVEPVAGSTGVLIPPKGYLQKLREICTKHGILLIFDEVITGYGRLGTPFAAQYFDVKPDIITTAKGLTNGVIPMGAVFVTSEIHDAFMTGPEHLIEFFHGYTYSGNPIASAAALGTLDTYREEGLLTRAAELAPYWEEALHSLKDCPHVIDIRNIGLIGAVELEPIAGEPTKRAFSAFLKAYEKGLLIRTTGDIIALSPPLIIEKRQIDELFDKLRDVLKNNI
Question: For B3, which “Adipaldehyde 10 mM U/mg” value [2] is on record?
Answer: 0.021 ± 0.003 U/mg

B4: PP4421: aminotransferase (AT) from Pseudomonas putida (protein)
chain: MDKQKQDLISQQDRGAVLHPFTQLKDFASGKAGDPTIIETAKGITITDATGREYIDGFAGLYCMNVGYGRTEVAEAISKQAHKLAYYHTYAAHTTEELARLSDRLVKMAPGKMSKVFYGMSGSDANETQAKLVWYYNNLRGKPNKKKIIARERGYHGCSVVSGSMTGMSFYHDHMDLPIAGILRTGAPHYYWGAEPGETELEFSARRARELEELILREGPDTIGAFIAEPVLGTGGITPPPEGYWAAVQPVLKKYDILLIADEVITGFGRTGAMFGCDKYGIEPDLITVAKGLTSAYAPLSASIVGEKVYKVMEEGADRVGAFSHGYTYSGHPIGVAAANAVLDIVEGENIPAHVDKVGQYFQKSMQETFSSLPIVGEVRGVGMMAAIEFVADPATKKRFDPALKVGARISKAARDRNLIARAMPHGEILGFAPPLVTTEQEVDRIISIAHEAVLSVLDELKV
Question: For B4, which “Adipaldehyde 10 mM U/mg” value [2] is on record?
Answer: 0.061 ± 0.001 U/mg

B5: SFyv_1886: aldehyde reductase (AR) from Shigella flexneri (protein)
chain: MHYQPKQDLLNDRIILVTGASDGIGREAAMTYARYGATVILLGRNEEKLRQVASHINEETGRQPQWFILDLLTCTSENCQQLAQRIVVNYPRLDGVLHNAGLLGDVCPMSEQNPQVWQDVMQINVNATFMLTQALLPLLLKSDAGSLVFTSSSVGRQGRANWGAYAASKFATEGMMQVLADEYQQRLRVNCINPGGTRTAMRASAFPTEDPQKLKTPADIMPLYLWLMGDDSRRKTGMTFDAQPGRKPGISQ
Question: For B5, which “Activity [U/mg protein] Butyraldehyde” value [1] is on record?
Answer: 0.124 ± 0.042 U/mg protein

B6: RHA1_ro08443: aldehyde reductase (AR) from Rhodococcus jostii (protein)
chain: MPEIVKFEMPRVETVVQGVGAVREIGAELDRRDLKRVFLVTGHSVGSSEAFAALASDLGDRVVGIFDQVKAHNPVELIVELITAAKSAQAEAFVAVGGGSPVDAAKLAAIGLCEGSESVEDLARNYLVFEYPNTIHQKPLTGTPMPVFAVPTTLSAAEWDGFAGSVDHTRDTKDLTVYLEATPQVVFLDPEFCAHTPRDLWATTGVRALDHAVETAYAKNAHPFTTALANGALTMLAENLPRSVKDPHDYDAALKCLEAAWMSIIGVHNVSLGLSHAIGHQLGAVGIPHGVTSCIMLPHVMRFLEPVTSAEQARMAQSLAQVQGDGEDLPAADRLERILDELGVPRRVSEFGVGRDKMDGVARATLGDIVVRESPRPVDETVVYGLLETVW
Question: Which “Activity [U/mg protein] Butyraldehyde” value [1] does the source give for B6 here?
Answer: 0.188 ± 0.142 U/mg protein

B7: TM_0111: aldehyde reductase (AR) from Thermotoga maritima (protein)
chain: MFKISFYLPTEIIFRVGAVDELEERAKKLGKKALIVTGRSSTKKTGLLQRVVDLLKKAGVESFVFDKIVPNPISDHVDEAAEIVRKEKIDFIIGLGGGSPIDSAKAISITAPNEGKFWDYVPVGGGKIPEKSIPVVAIPTTHGTGTEADPFAVITNPQTKEKVGIGYRNTFPVLSLVDPEVMKTLPKDQTAYTSMDAFYHAIEAFLNVNANPYSDVLALDAMKRIVTYLPVAYENGEDMEARTNLAWASTEAGITETLTGVIANHALEHGLSGFYPEITHGLGLCITGPYLFEYIFDHAYERLAIVGREVFGVYETDDRKAGRLAIKKLRDFQEMFGLNKRLSELGVKKEDIPKMAETGYRILNGVVVVTPGNLTAKDMEEIFNRCY
Question: Which “Activity [U/mg protein] Butyraldehyde” value [1] does the source give for B7 here?
Answer: 1.055 ± 0.43 U/mg protein

B8: SAV2583: aminotransferase (AT) from Streptomyces avermitilis (protein)
chain: MSALPQERRVVTAIPGPKSQELQARRTAVVAAGVGSVLPVFTTRAGGGIIEDVDGNRLIDFGSGIAVTSVGASAEAVVRRASAQLQDFTHTCFMVTPYEGYVAVAEALAELTPGDHAKKSALFNSGAEAVENAVKIARAYTKRQAVVVFDHGYHGRTNLTMALTAKNMPYKNGFGPFAPEVYRVPVAYGYRWLTGPENAGAEASAQAIDMINKQIGADNVAAIIIEPVLGEGGFIEPAKGFLPAISKFAKDNGIVFVADEIQSGFCRTGQWFACEDEGIVPDLITTAKGIAGGLPLAAVTGRAEIMDAAHAGGLGGTYGGNPVACAGALGAIETMKELDLNAKAKNIEAVMKARLGAMAEKFDIIGDVRGRGGMIAIELVKDRDTKEPNPEAAGALAKACHQEGLLVLTCGTYGNVLRFLPPLVIGEDLLNEGLDIIEQAFSRI
Question: Which “Adipaldehyde 10 mM U/mg” value [2] does the source give for B8 here?
Answer: 0.136 ± 0.011 U/mg

B9: PP_3370: aldehyde reductase (AR) from Pseudomonas putida (protein)
chain: MQYVKLGSTGLDISRLCLGCMTFGEPDAGTHPWTLGEDASRPIIRHAVEQGINFFDTANSYSAGTSEIILGKLLREFTRREETVIATKVFFPANMWEGASRPNEQGLSRKAIMANIDASLSRLGTDYVDLYQIHRWDYHTPIEETMEALHDVVKAGKARYIGASSMYAWQFAKAQQVAANHGWSRFVSMQNYLNLIYREEEREMIPLCLDQGVGLMPWSPMARGRLTRPHGQQTQRTRTDVSGQSFYEKTEVEDGRVIDVVEQIASERGVPMAQVALAWVLGRAGVSAPIVGASKPAHLDDALGALSLQLSEDEVARLQAPYVPHAVTGFK
Question: With B9 as the molecule, how does the “Activity [U/mg protein] Adipaldehyde” value [1] read?
Answer: 0.437 ± 0.043 U/mg protein

Question: And the “Activity [U/mg protein] Butyraldehyde” value [1]?
Answer: 1.516 ± 1.382 U/mg protein

B10: RPA0021: aldehyde reductase (AR) from Rhodopseudomonas palustris (protein)
chain: MTPRNATVAVIGAGDYIGAEIAKKFAAEGFTVFAGRRNGEKLAPLVAEIEAAGGRIVARSLDARNEDEVTAFLNAADAHAPLEVTIFNVGANVNFPILETTDRVFRKVWEMACWAGFVSGRESARLMLAHGQGKIFFTGATASLRGGSGFAAFASAKFGLRAVAQSMARELMPKNIHVAHLIIDSGVDTAWVRERREQMFGKDALANPDLLMPPAAVAGAYWQLYQQPKSAWTFEMEIRPYGEKW
Question: With B10 as the molecule, how does the “Activity [U/mg protein] Butyraldehyde” value [1] read?
Answer: 0.116 ± 0.031 U/mg protein

B11: SCO5676: aminotransferase (AT) from Streptomyces coelicolor (protein)
chain: MTALPQERRVVTAIPGPKSQELQARRTAVVAQGVGSTLPVFVARAGGGVIEDVDGNRLIDFGSGIAVTSVGASAEAVVRKASAQLADFTHTCFMVTPYEGYVAVAEALAELTPGDHAKKSALFNSGAEAVENAVKIARAYTKRQAVVVFDHGYHGRTNLTMALTAKNMPYKHGFGPFAPEVYRVPVAYGYRWPTGAENAGPEAAAQAIDQISKQVGAENVAAVIIEPVLGEGGFIEPAKGFLPAIREFASDNGIVFVADEIQSGFCRTGQWFACEDEGIVPDLITTAKGIAGGLPLSAVTGRAEIMDAAHSGGLGGTYGGNPVACAGALGAIETMKELDLNARAKDIEAVMKSRLAAMAEKFDVIGDVRGRGAMIAIELVKDRETKEPNPAATAALAKACHQEGLLVLTCGTYGNVLRFLPPLVIGEDLLNEGLDIIEQAFTRV
Question: With B11 as the molecule, how does the “Adipaldehyde 10 mM U/mg” value [2] read?
Answer: 0.084 ± 0.015 U/mg

B12: SCO0229: aldehyde reductase (AR) from Streptomyces coelicolor (protein)
chain: MQRQNWLITGVSTGLGRAFAQAALSAGHTVVGTVRSENDVRAFEELGPGHAHGRILDVTDGGAVNGVVAEVERSVGPLDVVVANAGYGLEGTFEETPLAEVRRQFDVNVFGAMATLQAALPHMRARRRGHLMAVTSMGGLMAVPGMSAYCGSKFALEGILEALGKEVAQFGIHVTAIEPGSFRTDWAGRSMTRAARTVADYDDLFAPIREARQKASGNQLGNPAKAGEAVVHITSVDQPPAHLVLGSDALRLVTAARTAVDEDIRAWEALSRTTDFPQGAQL
Question: With B12 as the molecule, how does the “Activity [U/mg protein] Adipaldehyde” value [1] read?
Answer: 0.362 ± 0.05 U/mg protein

Question: And the “Activity [U/mg protein] Butyraldehyde” value [1]?
Answer: 0.892 ± 0.847 U/mg protein
